By stoichiometry N is commonly meant the number of molecules, sites or subunits per partner or assembly.

We go through 2 proteins from paper PMC7060199, “DJ-1 suppresses ferroptosis through preserving the activity of S-adenosyl homocysteine hydrolase” (Nature Communications, 2020).

Data set [1] concerns the molecule itself. Briefly: cross-linking; cells incubated with 2 mM DSS for 30 min at 25 C, quenched with 1 M Tris-HCl pH 7.4; western blot; control and DJ-1 KD.
Data set [2] concerns the molecule itself. The data set can be described thus: not stated; HEK293T cells with DJ-1 overexpression (Supplementary Fig. 6j).

B1: S-adenosyl homocysteine hydrolase (enzyme, human (endogenous in H1299), UniProt P23526 1-432, looked up)
chain: MSDKLPYKVADIGLAAWGRKALDIAENEMPGLMRMRERYSASKPLKGARIAGCLHMTVETAVLIETLVTLGAEVQWSSCNIFSTQDHAAAAIAKAGIPVYAWKGETDEEYLWCIEQTLYFKDGPLNMILDDGGDLTNLIHTKYPQLLPGIRGISEETTTGVHNLYKMMANGILKVPAINVNDSVTKSKFDNLYGCRESLIDGIKRATDVMIAGKVAVVAGYGDVGKGCAQALRGFGARVIITEIDPINALQAAMEGYEVTTMDEACQEGNIFVTTTGCIDIILGRHFEQMKDDAIVCNIGHFDVEIDVKWLNENAVEKVNIKPQVDRYRLKNGRRIILLAEGRLVNLGCAMGHPSFVMSNSFTNQVMAQIELWTHPDKYPVGVHFLPKKLDEAVAEAHLGKLNVKLTKLTEKQAQYLGMSCDGPFKPDHYRY
notes: S-adenosyl homocysteine hydrolase (SAHH) of H1299 cells; also called SAHH; source: H1299 cell lysate (control KD and DJ-1 KD)
With B1, the “stoichiometry N” value in data set [1] came out at 4.

B2: SAHH in HEK293T cells (enzyme, UniProt P23526 1-432, looked up)
chain: B1 chain
notes: S-adenosyl homocysteine hydrolase (SAHH) in HEK293T cells with DJ-1 overexpression; source: HEK293T cells
Take B2: the “stoichiometry N” value in data set [2] is 4.
